Experiments:
[1] = molecular target: type 2 IGF receptor on H35 (rat hepatoma) cells (rat); assay: displacement of 125I-IGF-II from H35 cells (type 2 IGF receptor); refolded preparation
[2] = molecular target: type 2 IGF receptor on H35 (rat hepatoma) cells (rat); assay: displacement of 125I-IGF-II from H35 cells (type 2 IGF receptor); secreted preparation
[3] = molecular target: insulin receptor on H35 cells (rat) (UniProt P15127); assay: displacement of 125I-insulin from H35 cells (insulin receptor)
[4] = molecular target: type 2 IGF receptor on H35 (rat hepatoma) cells (rat); assay: displacement of 125I-IGF-II from H35 cells (type 2 IGF receptor)

Sequence of IGF-II (Q^37 Q^38) (ligand) (chain): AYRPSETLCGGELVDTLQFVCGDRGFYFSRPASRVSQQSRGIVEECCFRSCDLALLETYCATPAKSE
Sequence of wild-type IGF-II, refolded material (made by the HRP fusion route, pSD28, cyanogen bromide cleavage and refolding) (ligand) (chain): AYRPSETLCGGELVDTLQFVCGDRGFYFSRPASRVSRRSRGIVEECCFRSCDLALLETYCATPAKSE

## IGF-II (Q^37 Q^38) (ligand)
[1]
  IC50: 0.06 µg/mL
[2]
  IC50: 0.03 µg/mL

## insulin (ligand)
[3]
  IC50: 0.0048 µg/mL

## recombinant IGF-II from a commercial supplier (Bachem), reference standard (ligand)
[4]
  IC50: 0.018 µg/mL

## wild-type IGF-II, refolded material (made by the HRP fusion route, pSD28, cyanogen bromide cleavage and refolding) (ligand)
[4]
  IC50: 0.03 µg/mL

Source: patent US5854025
